Reference: PMC6252174 (Nature structural & molecular biology, 2018)

Molecular target: the molecule itself
Test: cryo-EM structure

B1: Xenopus tropicalis TRPV4 crystallization and cryo-EM construct TRPV4_(cryst) (133–797 N647Q) (domain or fragment, UniProt A0A6I8RQZ3 133-797, looked up)
chain: APSPDPPPVIKMFNRHMLFDIVSRGSTAELEGFLPFLLAQKKRLTDEEFREASTGKTCLTKALMNLNGGKNDTIPMLIDIAEKTGNLREFINSPFRDVYYRGQTALHIAIERRCKHYVELLVEKGADVHAQARGRFFQPKDEGGYFYFGELPLSLAACTNQPDIVHYLTENAHKKADIRRQDSRGNTVLHALVAIADNTRENTKFVTKVYDLLVIKCVKLYPDSSLEAIFNNDSMSPLMMAAKLGKIGIFQHIIRLEIKDEEARHLSRKFRDWAYGPVYSSLYDLSMLDTCGEEVSVLEILVYNSKVENRHEMLAVEPINELLRDKWQKFGAVSFYISVVSYLIAMIIFTLIAYYRPMDGTPPYPYRTTMDYMRLAGEIVTLLTGVVFFITNIKDLFMKKCPGVNSLFIDGSFQLLYFIYSVLVIITAVLYLVGIESYLAVMVFALVLGWMNALYFTRGLKLTGTYSIMLQKILFKDLFRFLLVYLLFMIGYASALVSLLNPCTSQESCIETSSQCTVPEYPSCRDSSTFSKFLLDLFKLTIGMGDLEMINSAKYPAVFIILLVTYIILTFVLLLNMLIALMGETVGQVSKESKQIWKLQWATTILDIERSFPVCMRKAFRSGEMVTVGKNLDGTPDRRWCFRVDEVNWSHWNQNLGIINEDPGR
  stoichiometry N: 4
